Assay results published in paper PMC8558838 (The Journal of Experimental Medicine, 2021).

B5: human LIGHT extracellular domain (L83-V240) (ligand, UniProt O43557 83-240, looked up)
chain: LIQERRSHEVNPAAHLTGANSSLTGSGGPLLWETQLGLAFLRGLSYHDGALVVTKAGYYYIYSKVQLGGVGCPLGLASTITHGLYKRTPRYPEELELLVSQQSPCGRATSSSRVWWDSSFLGGVVHLEAGEKVVVRVLDERLVRLRDGTRSYFGAFMV
notes: human LIGHT (TNFSF14), extracellular domain, residues L83-V240; Homotrimer; The His tag is used for detection in the flow cytometry staining; also called hLIGHT; TNFSF14; not shown: His6 (HHHHHHG), N-terminal, kept

Assays:
mBTLA protein = test: flow cytometry, cell–protein method; details: parent: est. 1.0; read off a plot
[1] = target: human LIGHT extracellular domain (L83-V240) (human) (UniProt O43557); test: crystal structure; single-chain hCD160–hHVEM and hLIGHT mixed in a 1:1 molar ratio, 5 mg/ml in 10 mM Hepes pH 7.0, 150 mM NaCl; crystallised in 12% PEG3350, 4% tacsimate; 3.5 Å
[2] = target: full-length mouse BTLA-EGFP, on cells (UniProt Q7TSA3); test: flow cytometry, cell–cell method
[3] = target: full-length mouse LIGHT, on cells (mLIGHT-IRES-EGFP) (UniProt Q9QYH9); test: flow cytometry, cell–cell method
[4] = target: mouse CD160 (30I-154H) with C-terminal …, biotinylated (UniProt O88875); test: flow cytometry, cell–protein method
[5] = target: mHVEM^−LIGHT (H86D-L90A) soluble protein, mHVEM-hIgG1 format (mouse, UniProt Q80WM9 39-206, H86D | L90A); test: BLI
[6] = target: mHVEM^−BT/160 (G72R-V74A) soluble protein, mHVEM-hIgG1 format (mouse, UniProt Q80WM9 39-206, G72R | V74A); test: BLI
[7] = target: T1, mHVEM (Q39-Q206)-human IgG1-hexa-His, WT (mouse, UniProt Q80WM9 39-206); test: BLI
T1 chain: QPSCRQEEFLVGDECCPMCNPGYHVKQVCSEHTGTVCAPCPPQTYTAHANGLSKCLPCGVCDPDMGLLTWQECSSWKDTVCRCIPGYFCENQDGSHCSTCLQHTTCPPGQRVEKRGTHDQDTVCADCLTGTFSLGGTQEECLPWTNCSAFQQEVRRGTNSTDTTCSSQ

[8] = target: T2, mHVEM (Q39-Q206)-human IgG1-hexa-His, WT (mouse, UniProt Q80WM9 39-206); test: BLI; Octet; mHVEM-hIgG1 immobilised on the sensors, challenged with different concentrations of mLIGHT, mBTLA or mCD160; steady-state fit for mLIGHT, 1:1 Langmuir model for mBTLA and mCD160; details: both partners purified
T2 construct: mouse HVEM (TNFRSF14) residues Q39-Q206; pcDNA 3.3; also called mHVEM-hIgG1; mHVEM^WT; source: Expi293, transfected, purified (Ni resin); not shown: Fc (human IgG1), C-terminal, kept
T2 sequence (looked up): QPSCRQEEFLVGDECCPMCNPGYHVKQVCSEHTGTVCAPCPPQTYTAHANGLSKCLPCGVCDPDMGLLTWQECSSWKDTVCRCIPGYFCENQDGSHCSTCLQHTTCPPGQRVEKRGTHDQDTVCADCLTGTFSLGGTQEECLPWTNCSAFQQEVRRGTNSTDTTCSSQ

[9] = target: T3, mHVEM^−BT/160 (G72R-V74A) soluble protein, mHVEM-hIgG1 format (mouse, UniProt Q80WM9 39-206, G72R | V74A); test: as above; details: both partners purified
T3 construct: mouse HVEM (TNFRSF14) residues Q39-Q206 with G72R and V74A; also called mHVEM G72R-V74A double mutein; source: expressed in soluble form (Expi293, purified on Ni resin, as told for mHVEM-hIgG1); not shown: Fc (human IgG1), C-terminal, kept
T3 sequence (looked up): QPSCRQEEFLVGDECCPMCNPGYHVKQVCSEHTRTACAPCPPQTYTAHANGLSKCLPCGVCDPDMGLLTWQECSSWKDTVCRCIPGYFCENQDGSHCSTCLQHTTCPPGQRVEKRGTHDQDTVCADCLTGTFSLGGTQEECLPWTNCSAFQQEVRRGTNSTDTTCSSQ

[10] = target: T4, mHVEM^−LIGHT (H86D-L90A) soluble protein, mHVEM-hIgG1 format (mouse, UniProt Q80WM9 39-206, H86D | L90A); test: as above; details: both partners purified
T4 construct: mouse HVEM (TNFRSF14) residues Q39-Q206 with H86D and L90A; also called mHVEM H86D-L90A double mutein; source: expressed in soluble form (Expi293, purified on Ni resin, as told for mHVEM-hIgG1); not shown: Fc (human IgG1), C-terminal, kept
T4 sequence (looked up): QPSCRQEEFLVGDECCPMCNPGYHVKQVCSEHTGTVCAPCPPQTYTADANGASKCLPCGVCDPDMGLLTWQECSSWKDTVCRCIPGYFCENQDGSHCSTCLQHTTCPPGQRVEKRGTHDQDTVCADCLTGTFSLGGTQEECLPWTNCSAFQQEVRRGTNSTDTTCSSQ

[11] = target: B5; test: SEC; analytical SEC; equal molar equivalents of hLIGHT and hHVEM monomers mixed; details: both partners purified
[12] = target: the molecule itself; test: crystal structure; hHVEM and hLIGHT mixed in a 1:1 molar ratio, 3 mg/ml in 10 mM Hepes pH 7.0, 150 mM NaCl; crystallised in 0.1 M Bis-Tris pH 5.5, 0.2 M MgCl2, 9% PEG3350; 2.30 Å

Molecule “full-length WT mouse HVEM-mCherry, on cells (from UniProt Q80WM9) H86R; L90A” has a ratio to parent (mBTLA protein) of 0.66.

“full-length WT mouse HVEM-mCherry, on cells (from UniProt Q80WM9) G72D; V74A” showed a ratio to parent (mBTLA protein) of 0.02.

Work on “full-length WT mouse HVEM-mCherry, on cells (from UniProt Q80WM9) H86A; L90A” yielded a ratio to parent (mBTLA protein) of 0.78.

With “full-length WT mouse HVEM-mCherry, on cells (from UniProt Q80WM9) H86D; L90R” the ratio to parent (mBTLA protein) was 0.63.

“full-length WT mouse HVEM-mCherry, on cells (from UniProt Q80WM9) H86D; L90D” showed a ratio to parent (mBTLA protein) of 0.82.

Molecule “full-length WT mouse HVEM-mCherry, on cells (from UniProt Q80WM9) G72R; V74A” has a ratio to parent (mBTLA protein) of 0.01.

With “full-length WT mouse HVEM-mCherry, on cells (from UniProt Q80WM9) G72A; V74D” the ratio to parent (mBTLA protein) was 0.01.

“full-length WT mouse HVEM-mCherry, on cells (from UniProt Q80WM9) G72D; V74R” was tested, and the ratio to parent (mBTLA protein) was 0.01.

For “single-chain hCD160–hHVEM fusion protein”, the stoichiometry N (hCD160–hHVEM per hLIGHT homotrimer) [1] was 3.

In the case of “full-length WT mouse HVEM-mCherry, on cells (from UniProt Q80WM9) A76A”, the ratio to parent [2] is reported as 1.1, the ratio to parent [3] is reported as 1.2 and the ratio to parent [4] is reported as 1.

In the case of “full-length WT mouse HVEM-mCherry, on cells (from UniProt Q80WM9) G72D; V74D”, the ratio to parent (mBTLA protein) is reported as 0.01.

B1: single chain homotrimeric mLIGHT extracellular domain (G73-V239) connected by two (GGGGS)4 linkers (ligand, mouse)
chain: GGKGSWEKLIQDQRSHQANPAAHLTGANASLIGIGGPLLWETRLGLAFLRGLTYHDGALVTMEPGYYYVYSKVQLSGVGCPQGLANGLPITHGLYKRTSRYPKELELLVSRRSPCGRANSSRVWWDSSFLGGVVHLEAGEEVVVRVPGNRLVRPRDGTRSYFGAFMVGGGGSGGGGSGGGGSGGGGSGGKGSWEKLIQDQRSHQANPAAHLTGANASLIGIGGPLLWETRLGLAFLRGLTYHDGALVTMEPGYYYVYSKVQLSGVGCPQGLANGLPITHGLYKRTSRYPKELELLVSRRSPCGRANSSRVWWDSSFLGGVVHLEAGEEVVVRVPGNRLVRPRDGTRSYFGAFMVGGGGSGGGGSGGGGSGGGGSGGKGSWEKLIQDQRSHQANPAAHLTGANASLIGIGGPLLWETRLGLAFLRGLTYHDGALVTMEPGYYYVYSKVQLSGVGCPQGLANGLPITHGLYKRTSRYPKELELLVSRRSPCGRANSSRVWWDSSFLGGVVHLEAGEEVVVRVPGNRLVRPRDGTRSYFGAFMV
notes: mouse LIGHT (TNFSF14) extracellular domain G73-V239, first copy; linker, printed as (GGGGS)4; mouse LIGHT (TNFSF14) extracellular domain G73-V239, second copy; mouse LIGHT (TNFSF14) extracellular domain G73-V239, third copy; Three copies of the extracellular domain on one chain; source: Expi293, transfected, purified (Ni resin, SEC)
B1 gave a Kd [5] of 31.7 µM, a Kd [6] of 0.0293 µM and a Kd [7] of 0.0162 µM. B1: binds [8]; binds [9].

B2: mouse BTLA, soluble protein used as analyte in the Octet experiment (ligand, UniProt Q7TSA3 30-183, looked up)
chain: EKATKRNDEECPVQLTITRNSKQSARTGELFKIQCPVKYCVHRPNVTWCKHNGTICVPLEVSPQLYTSWEENQSVPVFVLHFKPIHLSDNGSYSCSTNFNSQVINSHSVTIHVRERTQNSSEHPLITVSDIPDATNASGPSTMEERPGRTWLLY
notes: mouse BTLA (CD272), soluble form; also called mBTLA
For B2, the Kd [5] was 5.3 µM, the Kd [7] was 1.1 µM and the “fold reduction of binding against WT mHVEM” value [10] was roughly 5 fold.

B3: mouse CD160 (30I-154H) with C-terminal …, biotinylated (ligand)
chain: IHVTSSASQKGGRLDLTCTLWHKKDEAEGLILFWCKDNPWNCSPETNLEQLRVKRDPETDGITEKSSQLVFTIEQATPSDSGTYQCCARSQKPEIYIHGHFLSVLVTGNHTEIRQRQRSHPDFSH
modifications: biotin
For B3, the Kd [5] was 33.5 µM and the Kd [7] was 11.6 µM.

B4: human HVEM extracellular domain (L39-C162) (domain or fragment, UniProt Q92956 39-162, looked up)
chain: LPSCKEDEYPVGSECCPKCSPGYRVKEACGELTGTVCEPCPPGTYIAHLNGLSKCLQCQMCDPAMGLRASRNCSRTENAVCGCSPGHFCIVQDGDHCAACRAYATSSPGQRVQKGGTESQDTLC
notes: human HVEM (TNFRSF14), extracellular domain, residues L39-C162; positions numbered with initiation codon = 1; Cloned into pMT/BiP/V5-His for His-tag fusion protein production; also called hHVEM; TNFRSF14
For B4, the “stoichiometry N” value [11] was 3 hHVEM per hLIGHT homotrimer.

B5 was tested, and the “stoichiometry N” value [12] was 3.

B6: mouse CD160 (30I-154H) with C-terminal [residues removed], biotinylated (ligand, UniProt O88875 30-154, looked up)
chain: IHVTSSASQKGGRLDLTCTLWHKKDEAEGLILFWCKDNPWNCSPETNLEQLRVKRDPETDGITEKSSQLVFTIEQATPSDSGTYQCCARSQKPEIYIHGHFLSVLVTGNHTEIRQRQRSHPDFSH
modifications: biotin
notes: mouse CD160 residues 30I-154H; also called mCD160; mCD160-biotin
With B6 the binding result [8] was “binds” and the “fold reduction of binding against WT mHVEM” value [10] was roughly 3 fold.
